Measured values taken from patent publication US20240343794A1 (UNITED KINGDOM RESEARCH AND INNOVATION, published 2024).

Molecular target: T1, human IL-25R (IL-17BR) on human ILCs/ILC2s from primary CRC samples (human, UniProt Q9NRM6 18-502)
T1 construct: Endogenous receptor on primary patient cells; also called interleukin-17 receptor B
T1 sequence: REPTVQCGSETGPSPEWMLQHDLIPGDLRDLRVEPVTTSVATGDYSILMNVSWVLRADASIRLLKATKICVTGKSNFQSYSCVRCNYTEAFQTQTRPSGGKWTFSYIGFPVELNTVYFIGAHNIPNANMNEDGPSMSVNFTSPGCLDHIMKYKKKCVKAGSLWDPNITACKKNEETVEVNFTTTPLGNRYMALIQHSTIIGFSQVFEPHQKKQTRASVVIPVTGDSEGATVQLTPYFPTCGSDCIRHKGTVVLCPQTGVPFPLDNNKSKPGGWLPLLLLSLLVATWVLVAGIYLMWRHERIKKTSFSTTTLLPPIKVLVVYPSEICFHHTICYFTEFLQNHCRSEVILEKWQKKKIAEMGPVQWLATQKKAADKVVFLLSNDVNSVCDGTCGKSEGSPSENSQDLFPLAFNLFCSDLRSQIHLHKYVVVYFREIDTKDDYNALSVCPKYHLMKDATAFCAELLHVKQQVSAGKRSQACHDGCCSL
Experiment: Flow cytometry of a primary human CRC sample stained with biotinylated D9.2 plus streptavidin-BV421. Cells were pre-gated on Live CD45+, then Lin- CD4-, CD127+, and CRTH2+ for ILC2.
Description: Subsequently, samples were digested with 62.5 μg/mL Liberase TL (Roche) and 0.125 KU/mL DNase I (Sigma) in RPMI+2% FCS+10 mM HEPES at 37° C., shaking, for 45 minutes to collect lamina propria cells. After digestion, cells were passed through a 70 μm cell strainer and washed with PBS+2% FCS before antibody staining. Mesenteric lymph nodes were mechanically dissociated in RPMI, filtered through a 50 μm cell strainer, and washed with PBS+2% FCS before antibody staining. Fresh, surgically-resected human CRC and adjacent normal tissue were collected in sterile PBS and transported on ice before sample processing. Samples were mechanically dissociated into small pieces and digested with 100 μg/mL Liberase TM (Roche) and 0.2 KU/mL DNase I (Sigma) in RPMI, and incubated at 37° C. for 30 minutes. Subsequently, cells were filtered through a 70 μm cell strainer and washed with PBS+2% FCS before antibody staining for flow cytometry.
For surface staining, single cell suspensions were 333 blocked with anti-CD16/32 antibody (Fc block, clone 2.4G2) and Human TruStain FcX (Biolegend, 422302) for mouse and human samples in PBS+2% FCS respectively, and incubated with fluorochrome-conjugated or biotinylated antibodies on ice for 30 minutes in the dark. If necessary, samples were then incubated with fluorochrome-conjugated streptavidin on ice for a further 30 minutes.

- binding result: binds
B1: anti-IL25R monoclonal antibody (clone D9.2) (antibody, V domains shown)
VH: QVQLQQPGAELVRPGASVKLSCKTSGYTFISYWMNWVKQGPEQGLEWIGRIDPYDSEIQYNQKFKDKAILTVDKSSSAAYMQLISLTSEDSAVYYCARSGGFDWFAYWGQGTLVTVSA
VL: DIQMTQSPASLSVSVGETVTITCRASENINSNLAWYQQKKGKSPQLLVYDVTNLADGVPSRFSGSGSGTQYSLKINSLQSEDFGSYYCQHFWRPPYTFGGGTNLEIK
notes: Murine antibody; also called IL17BR (D9.2, AF647); IL17BR (D9.2, biotin)
